Experimental data as given in the supplement of paper PMC7877785.
± gives the uncertainty stated by the source.

Experiment: self-splicing fitness, log relative to wild type (ln ratio); higher = more splicing; Tetrahymena group I intron in knt gene, E. coli kanamycin selection, DiMSum; sequences stand for … in CUCUCU…GGAGGGAAAAGUUAUCAGGCAUGCACCUGGUAGCUAGUCUUUAAACCAAUAGAUUGCAUCGGUUUAAAAGGCAAGACCGUCAAAUUGCGGGAAAGGGGUCAACAGCCGUUCAGUACCAAGUCUCAGGGGAAACUUUGAGAUGGCCUUGCAAAGGGUAUGGUAAUAAGCUGACGGACAUGGUCCUAACCACGCAGCCAAGUCCUAAGUCAACAGAUCUUCUGUUGAUAUGGAUGCAGUUCACAGACUAAAUGUCGGUCGGGGAAGAUGUAUUCUUCUCAUAAGAUAUAGUCGGACCUCUCCUUAAUGGGAGCUAGCGGAUGAAGUGAUGCAACACUGGAGCCGCUGGGAACUAAUUUGUAUGCGAAAGUAUAUUGAUUAGUUUUGGAGUACUCGUGGUCG
Method in brief: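 Fitness was computed with DiMSum as the error-weighted combination of replicate fold changes, kanamycin versus none, each normalised to wild type. The library randomised all eight intron nucleotides of the P1ex region, with the intron placed in the knt kanamycin-resistance gene on pET-22b(+) in E. coli BL21(DE3). Six replicate transformations were grown overnight at 37°C or 30°C on LB agar with or without 25 μg/mL kanamycin, plus 100 μg/mL carbenicillin, 50 μM IPTG and 0.2% rhamnose. Pooled colonies were amplicon-sequenced on an Illumina HiSeq 2500.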

Sequence	self-splicing fitness (ln) (30 °C)	self-splicing fitness (ln) (37 °C)
UAGCAGCAAUAUUACGGGCG	-0.609 ± 0.065	-0.24 ± 0.087
ACAAAGCAAUAUUACGUCCC	-0.873 ± 0.23	-1.78 ± 0.25
GGACAGCAAUAUUACGGCCC	-1.7 ± 0.46	–
UAUGAGCAAUAUUACGCGUC	-2.05 ± 0.16	-2.81 ± 0.37
UAGUAGCAAUAUUACGGAAU	–	-2.65 ± 0.44
CAGGAGCAAUAUUACGCGCU	-2.49 ± 0.2	-2.62 ± 0.41
UAACAGCAAUAUUACGACCU	-0.404 ± 0.098	0.106 ± 0.11
AAUUAGCAAUAUUACGAAAU	-1.2 ± 0.16	-1.09 ± 0.23
ACCCAGCAAUAUUACGCUAA	-1.67 ± 0.069	-1.33 ± 0.068
UCAUAGCAAUAUUACGCCAG	-1.74 ± 0.17	-2.4 ± 0.19
UGCUAGCAAUAUUACGGCGC	-3.41 ± 0.37	1.38 ± 0.48
ACUUAGCAAUAUUACGACGU	-0.13 ± 0.076	0.549 ± 0.079
GACGAGCAAUAUUACGAUGA	-4.01 ± 0.39	-2.14 ± 0.2
UAGUAGCAAUAUUACGAAAG	–	-1.97 ± 0.26
GACAAGCAAUAUUACGGAAG	-2.75 ± 0.21	-3.29 ± 0.37
GUUAAGCAAUAUUACGUCCC	0.552 ± 0.49	–
AGUCAGCAAUAUUACGGCUC	-3.84 ± 0.43	-1.54 ± 0.45
CGACAGCAAUAUUACGCUUC	–	-3.09 ± 0.43
UUACAGCAAUAUUACGUUCC	-3.34 ± 0.26	-2.22 ± 0.46
AGUUAGCAAUAUUACGAGGU	-3.43 ± 0.16	-1.55 ± 0.17
CUCCAGCAAUAUUACGAUUC	-4.14 ± 0.18	-2.72 ± 0.19
GGCAAGCAAUAUUACGCAUG	-2.17 ± 0.12	-1.36 ± 0.16
AGUCAGCAAUAUUACGACCU	-0.358 ± 0.081	0.103 ± 0.11
AAAGAGCAAUAUUACGGUGA	-3.87 ± 0.22	-1.93 ± 0.14
CAGAAGCAAUAUUACGUGCA	-2.49 ± 0.14	-1.75 ± 0.14

Sequence	self-splicing fitness (ln) (30 °C)	self-splicing fitness (ln) (37 °C)
UUACAGCAAUAUUACGGGUG	-1.05 ± 0.061	-0.414 ± 0.077
GGGUAGCAAUAUUACGAAUC	0.0354 ± 0.3	-0.646 ± 0.36
UUCAAGCAAUAUUACGCAGC	-1.85 ± 0.16	-2.72 ± 0.31
UGACAGCAAUAUUACGCUGC	-4.45 ± 0.25	-2.65 ± 0.18
AGAAAGCAAUAUUACGCCCU	0.0807 ± 0.13	0.131 ± 0.14
UAUAAGCAAUAUUACGGCUU	-1.22 ± 0.12	-0.669 ± 0.16
GUACAGCAAUAUUACGGAGC	-3.06 ± 0.14	-2.17 ± 0.15
CGGUAGCAAUAUUACGCUAG	-2.28 ± 0.34	-0.219 ± 0.24
UACCAGCAAUAUUACGUCUA	0.0647 ± 0.067	0.41 ± 0.086
GGCUAGCAAUAUUACGUCUC	-0.325 ± 0.094	-0.0256 ± 0.11
CCUCAGCAAUAUUACGGAAU	-3.72 ± 0.3	-2.69 ± 0.25
AAUGAGCAAUAUUACGGGGA	-2.54 ± 0.17	-2.22 ± 0.25
GCGCAGCAAUAUUACGUCCG	-2.27 ± 0.11	-0.478 ± 0.14
UGGGAGCAAUAUUACGGCAA	-2.97 ± 0.47	-0.863 ± 0.32
AAGCAGCAAUAUUACGGGGU	-3.21 ± 0.13	-2.56 ± 0.16
ACCAAGCAAUAUUACGCUGA	-1.73 ± 0.1	-1.13 ± 0.11
UUCUAGCAAUAUUACGGUGG	-4.34 ± 0.39	-2.5 ± 0.26
CUGUAGCAAUAUUACGAACG	0.0721 ± 0.084	0.403 ± 0.1
CCCGAGCAAUAUUACGCAAA	-4.05 ± 0.35	-0.386 ± 0.21
CAGCAGCAAUAUUACGGAGC	-3.3 ± 0.33	-2.68 ± 0.39
AUCCAGCAAUAUUACGCAUC	-2.92 ± 0.18	-1.97 ± 0.14
UCCAAGCAAUAUUACGGAUG	-3.77 ± 0.13	-3.2 ± 0.25
CCGAAGCAAUAUUACGAGUU	-2.77 ± 0.1	-2.96 ± 0.17
CCGUAGCAAUAUUACGAGGU	-3.33 ± 0.19	-2.46 ± 0.22
CACGAGCAAUAUUACGAGAU	-4.36 ± 0.32	-3.09 ± 0.26

Sequence	self-splicing fitness (ln) (30 °C)	self-splicing fitness (ln) (37 °C)
UGCGAGCAAUAUUACGUCCA	-0.227 ± 0.25	-0.499 ± 0.29
UGUAAGCAAUAUUACGGAGU	-2.24 ± 0.22	-1.58 ± 0.33
GUGCAGCAAUAUUACGAGAG	-2.23 ± 0.15	-2.42 ± 0.2
AGAAAGCAAUAUUACGAGCC	-2.01 ± 0.17	-0.816 ± 0.21
GUUGAGCAAUAUUACGCGCC	-2.97 ± 0.37	–
GGAGAGCAAUAUUACGAUAC	-2.61 ± 0.35	-2.47 ± 0.31
UAGGAGCAAUAUUACGCUAG	-3.03 ± 0.19	-0.83 ± 0.19
AUACAGCAAUAUUACGGGGG	-3.43 ± 0.25	-2.84 ± 0.25
UGCAAGCAAUAUUACGCUUA	-1.2 ± 0.092	-0.639 ± 0.092
CGUAAGCAAUAUUACGUGCU	-3.24 ± 0.21	-1.94 ± 0.21
UGUCAGCAAUAUUACGCGCU	-0.874 ± 0.17	-0.182 ± 0.17
AAUAAGCAAUAUUACGAUGG	-2.53 ± 0.14	-0.861 ± 0.12
GCCUAGCAAUAUUACGCUUU	-0.497 ± 0.097	-0.0274 ± 0.12
CUAAAGCAAUAUUACGAUUA	-2.51 ± 0.092	-1.19 ± 0.12
CGAUAGCAAUAUUACGUUCC	-1.5 ± 0.25	-1.51 ± 0.32
UUCGAGCAAUAUUACGGUGG	-3.36 ± 0.27	-1.07 ± 0.19
UACGAGCAAUAUUACGAUUG	-3.62 ± 0.25	-0.584 ± 0.2
GGACAGCAAUAUUACGAAGU	-1.34 ± 0.14	-0.422 ± 0.14
AACAAGCAAUAUUACGACUG	-0.961 ± 0.099	-0.786 ± 0.11
CUCGAGCAAUAUUACGAUUA	-3.13 ± 0.3	-2.56 ± 0.26
GAAGAGCAAUAUUACGGAGG	-2.48 ± 0.2	-2.01 ± 0.31
UCACAGCAAUAUUACGUGGA	-2.51 ± 0.095	-2.36 ± 0.1
AUCUAGCAAUAUUACGGCCU	-0.214 ± 0.1	-0.589 ± 0.14
UACGAGCAAUAUUACGGACU	-2.36 ± 0.23	–
GAGUAGCAAUAUUACGUAAU	-2.16 ± 0.13	-2.38 ± 0.16

Sequence	self-splicing fitness (ln) (30 °C)	self-splicing fitness (ln) (37 °C)
UUCGAGCAAUAUUACGGGCA	-2.27 ± 0.17	-0.711 ± 0.15
UACGAGCAAUAUUACGUUGA	-3.2 ± 0.24	-2.73 ± 0.23
AUUCAGCAAUAUUACGCGCU	-2.15 ± 0.12	-0.796 ± 0.13
AUGUAGCAAUAUUACGGCCU	0.449 ± 0.097	0.248 ± 0.12
UUUGAGCAAUAUUACGAGUG	-3.74 ± 0.18	-2.88 ± 0.2
AUACAGCAAUAUUACGCAAC	-2.13 ± 0.16	-1.49 ± 0.15
CCUCAGCAAUAUUACGCUUG	-4.31 ± 0.37	-2.52 ± 0.23
ACUCAGCAAUAUUACGCCUG	-3.39 ± 0.22	-1.5 ± 0.2
GUCAAGCAAUAUUACGGUUG	-5.24 ± 0.39	-3.24 ± 0.21
GUACAGCAAUAUUACGGAAC	-3.3 ± 0.19	-0.753 ± 0.17
AGUAAGCAAUAUUACGCGUC	-3.37 ± 0.19	-2.2 ± 0.17
GGGAAGCAAUAUUACGUCGG	–	-0.827 ± 0.18
GGAAAGCAAUAUUACGAUUA	-0.527 ± 0.16	0.788 ± 0.16
GAGUAGCAAUAUUACGUCGA	-1.43 ± 0.15	-0.114 ± 0.14
UCCAAGCAAUAUUACGGAGU	-2.17 ± 0.12	-1.44 ± 0.13
CUAGAGCAAUAUUACGGGUA	-3.53 ± 0.36	-2.3 ± 0.36
CUGAAGCAAUAUUACGGGUA	-3.21 ± 0.15	-3.96 ± 0.42
CGGAAGCAAUAUUACGAUGA	-1.91 ± 0.11	-0.379 ± 0.096
UCCUAGCAAUAUUACGGUCC	-2.63 ± 0.24	–
UUUUAGCAAUAUUACGGGUU	–	-2.26 ± 0.29
CUCUAGCAAUAUUACGCUAG	-3.15 ± 0.25	-1.85 ± 0.28
GUUGAGCAAUAUUACGCAGG	-3.35 ± 0.28	-1.75 ± 0.37
UCGGAGCAAUAUUACGACUG	-1.59 ± 0.31	0.217 ± 0.17
